B1: S. cerevisiae Abp1 (full length; SH3 domain 535-592 mutated) / Hua2 (parent complex)
chain 1: MALEPIDYTTHSREIDAEYLKIVRGSDPDTTWLIISPNAKKEYEPESTGSSFHDFLQLFDETKVQYGLARVSPPGSDVEKIIIIGWCPDSAPLKTRASFAANFAAVANNLFKGYHVQVTARDEDDLDENELLMKISNAAGARYSIQTSSKQQGKASTPPVKKSFTPSKSPAPVSKKEPVKTPSPAPAAKISSRVNDNNDDDDWNEPELKERDFDQAPLKPNQSSYKPIGKIDLQKVIAEEKAKEDPRLVQKPTAAGSKIDPSSDIANLKNESKLKRDSEFNSFLGTTKPPSMTESSLKNDDDKVIKGFRNEKSPAQLWAERKAKQNSGNAETKAEAPKPEVPEDEPEGEPDVKDLKSKFEGLAASEKEEEEMENKFAPPPKKSEPTIISPKPFSKPQEPVKAEEAEQPKTDYKKIGNPLPGMHIEADNEEEPEENDDDWDDDEDEAAQPPLPSRNVASGAPVQKEEPEQEEIAPSLPSRNSIPAPKQEEAPEQAPEEEIEEEAEEAAPQLPSRSSAAPPPPPRRATPEKKPKENPWATAEYDYDAAEDNELTFVENDKIINIEFVDDDWWLGELEKDGSKGLFPSNYVSLGN
chain 2: MQQTKFGKMYLDHDSVVEYSEDEIVEADRITLGYKKRLSMIENQMRHLLEDFSLDVQQIEPILADLQKYYDAFLQLLQKRNKSLQCKRSTHQPVPSPMNSQTSTNAKVNLSGKLMKFQLNSVQKFDEENILRILQNKIEFEHYFQIDKGKKQKVLLLAVYQCLNGPTRLHKVLNIEGIIHNNSIRTILGKQVSSSKWTVFLYDVKLVLLAHRQDVPNLETSKMIVRYGDLFPCALYFKDHTAY

The assay covers variants of B1. Nature of the assay: DHFR protein-fragment complementation in yeast (Abp1-DHFR F[1,2] x partner-DHFR F[3]), deep mutational scanning, second methotrexate selection vs reference; S. cerevisiae, DHFR-PCA selection in liquid with methotrexate at 30 C, two 72 h selections (the score uses the second); reference = the pre-selection culture.
Consider chain 1 E555C, for which the screen value was -0.0642 DMS score: mean over two replicates of log2(f_test/f_ref + 0.5)/ln 2, minus the synonymous-codon median (not a log2 ….

In the case of chain 1 D567H, the screen value was -2.08 DMS score: mean over two replicates of log2(f_test/f_ref + 0.5)/ln 2, minus the synonymous-codon median (not a log2 ….

With chain 1 D567Q, the screen value was -2.97 DMS score: mean over two replicates of log2(f_test/f_ref + 0.5)/ln 2, minus the synonymous-codon median (not a log2 ….

For the variant chain 1 W569Y, the screen value is -0.138 DMS score: mean over two replicates of log2(f_test/f_ref + 0.5)/ln 2, minus the synonymous-codon median (not a log2 ….

For the variant chain 1 T538R, the screen value was 0.298 DMS score: mean over two replicates of log2(f_test/f_ref + 0.5)/ln 2, minus the synonymous-codon median (not a log2 ….

For the variant chain 1 T538Y, the screen value was -0.148 DMS score: mean over two replicates of log2(f_test/f_ref + 0.5)/ln 2, minus the synonymous-codon median (not a log2 ….

chain 1 F564Y: the screen value is 0.127 DMS score: mean over two replicates of log2(f_test/f_ref + 0.5)/ln 2, minus the synonymous-codon median (not a log2 ….

Consider chain 1 N556F, for which the screen value was -0.0258 DMS score: mean over two replicates of log2(f_test/f_ref + 0.5)/ln 2, minus the synonymous-codon median (not a log2 ….

As to chain 1 N556R, the screen value was 0.377 DMS score: mean over two replicates of log2(f_test/f_ref + 0.5)/ln 2, minus the synonymous-codon median (not a log2 ….

Consider chain 1 N556Q, for which the screen value was -0.244 DMS score: mean over two replicates of log2(f_test/f_ref + 0.5)/ln 2, minus the synonymous-codon median (not a log2 ….

As for chain 1 D577C, the screen value was -0.926 DMS score: mean over two replicates of log2(f_test/f_ref + 0.5)/ln 2, minus the synonymous-codon median (not a log2 ….

In the case of chain 1 T552H, the screen value was -1.03 DMS score: mean over two replicates of log2(f_test/f_ref + 0.5)/ln 2, minus the synonymous-codon median (not a log2 ….

As for chain 1 T552G, the screen value was -0.255 DMS score: mean over two replicates of log2(f_test/f_ref + 0.5)/ln 2, minus the synonymous-codon median (not a log2 ….

chain 1 Y541A: the screen value was -1.6 DMS score: mean over two replicates of log2(f_test/f_ref + 0.5)/ln 2, minus the synonymous-codon median (not a log2 ….

chain 1 S589A: the screen value is 0.074 DMS score: mean over two replicates of log2(f_test/f_ref + 0.5)/ln 2, minus the synonymous-codon median (not a log2 ….

For the variant chain 1 S589M, the screen value is -0.0692 DMS score: mean over two replicates of log2(f_test/f_ref + 0.5)/ln 2, minus the synonymous-codon median (not a log2 ….

For chain 1 D568W, the screen value was -2.95 DMS score: mean over two replicates of log2(f_test/f_ref + 0.5)/ln 2, minus the synonymous-codon median (not a log2 ….

As to chain 1 P535Y, the screen value was 0.518 DMS score: mean over two replicates of log2(f_test/f_ref + 0.5)/ln 2, minus the synonymous-codon median (not a log2 ….

chain 1 A546Y: the screen value was -0.447 DMS score: mean over two replicates of log2(f_test/f_ref + 0.5)/ln 2, minus the synonymous-codon median (not a log2 ….

On to chain 1 A546M, for which the screen value was -0.41 DMS score: mean over two replicates of log2(f_test/f_ref + 0.5)/ln 2, minus the synonymous-codon median (not a log2 ….

As for chain 1 A546Q, the screen value was 1.19 DMS score: mean over two replicates of log2(f_test/f_ref + 0.5)/ln 2, minus the synonymous-codon median (not a log2 ….

In the case of chain 1 L590V, the screen value is -0.52 DMS score: mean over two replicates of log2(f_test/f_ref + 0.5)/ln 2, minus the synonymous-codon median (not a log2 ….

On to chain 1 D544C, for which the screen value was 1.15 DMS score: mean over two replicates of log2(f_test/f_ref + 0.5)/ln 2, minus the synonymous-codon median (not a log2 ….

For the variant chain 1 K576E, the screen value is -0.947 DMS score: mean over two replicates of log2(f_test/f_ref + 0.5)/ln 2, minus the synonymous-codon median (not a log2 ….

Consider chain 1 K576R, for which the screen value was 0.467 DMS score: mean over two replicates of log2(f_test/f_ref + 0.5)/ln 2, minus the synonymous-codon median (not a log2 ….

chain 1 K576A: the screen value is -0.373 DMS score: mean over two replicates of log2(f_test/f_ref + 0.5)/ln 2, minus the synonymous-codon median (not a log2 ….

For the variant chain 1 L571T, the screen value is -0.86 DMS score: mean over two replicates of log2(f_test/f_ref + 0.5)/ln 2, minus the synonymous-codon median (not a log2 ….

As to chain 1 L571K, the screen value was -0.248 DMS score: mean over two replicates of log2(f_test/f_ref + 0.5)/ln 2, minus the synonymous-codon median (not a log2 ….

For chain 1 L571V, the screen value is -0.465 DMS score: mean over two replicates of log2(f_test/f_ref + 0.5)/ln 2, minus the synonymous-codon median (not a log2 ….

As for chain 1 L571I, the screen value was -0.705 DMS score: mean over two replicates of log2(f_test/f_ref + 0.5)/ln 2, minus the synonymous-codon median (not a log2 ….

Consider chain 1 L571N, for which the screen value was -0.368 DMS score: mean over two replicates of log2(f_test/f_ref + 0.5)/ln 2, minus the synonymous-codon median (not a log2 ….

Regarding chain 1 D566E, the screen value is -1.31 DMS score: mean over two replicates of log2(f_test/f_ref + 0.5)/ln 2, minus the synonymous-codon median (not a log2 ….

On to chain 1 D566N, for which the screen value was -1.27 DMS score: mean over two replicates of log2(f_test/f_ref + 0.5)/ln 2, minus the synonymous-codon median (not a log2 ….

With chain 1 D566H, the screen value was -2.26 DMS score: mean over two replicates of log2(f_test/f_ref + 0.5)/ln 2, minus the synonymous-codon median (not a log2 ….

For chain 1 Y587L, the screen value was 1.47 DMS score: mean over two replicates of log2(f_test/f_ref + 0.5)/ln 2, minus the synonymous-codon median (not a log2 ….

Take chain 1 Y587S: the screen value was -2.24 DMS score: mean over two replicates of log2(f_test/f_ref + 0.5)/ln 2, minus the synonymous-codon median (not a log2 ….

Consider chain 1 Y587C, for which the screen value is -1.01 DMS score: mean over two replicates of log2(f_test/f_ref + 0.5)/ln 2, minus the synonymous-codon median (not a log2 ….
